± gives the uncertainty stated by the source.

B1: Pre-mRNA-processing factor 40 homolog B, residues 274 to 332; numbered along this chain, Q6NWY9 (parent)
chain: SNREKAKQAFKELLRDKAVPSNASWEQAMKMVVTDPRYSALPKLSEKKQAFNAYKAQRE
B2: Lysine-specific demethylase 5C, residues 319 to 373; numbered along this chain, P41229 (parent)
chain: AQFIESYVCRMCSRGDEDDKLLLCDGCDDNYHIFCLLPPLPEIPKGVWRCPKCVM

One data set covers variants of B1. Briefly: abundance fitness (aPCA) (normalised: wild type 0, dead -1); higher = more abundant; growth selection in yeast, the domain comes from the species named. Conditions: Homo sapiens.
Regarding L44K, the abundance fitness is -0.289 ± 0.11.

As to L44P, the abundance fitness was -0.269 ± 0.084.

For the variant L44V, the abundance fitness is -0.107 ± 0.077.

Turning to L44S, the abundance fitness was -0.175 ± 0.076.

For L44A, the abundance fitness is -0.12 ± 0.072.

As for L44E, the abundance fitness is 0.137 ± 0.089.

As for L44W, the abundance fitness is -0.561 ± 0.089.

L44H: the abundance fitness is -0.736 ± 0.17.

R58D: the abundance fitness is -0.244 ± 0.21.

Turning to R58C, the abundance fitness came to 0.26 ± 0.13.

Consider R58V, for which the abundance fitness was 0.085 ± 0.1.

On to R58I, for which the abundance fitness is -0.648 ± 0.29.

Take R58F: the abundance fitness was -0.162 ± 0.22.

With R58W, the abundance fitness came to 0.061 ± 0.087.

R58Y: the abundance fitness was 0.1 ± 0.28.

R58H: the abundance fitness was -0.013 ± 0.27.

For the variant R58K, the abundance fitness worked out at 0.008 ± 0.23.

Turning to R58S, the abundance fitness was -0.008 ± 0.093.

For the variant R58M, the abundance fitness worked out at 0.184 ± 0.13.

As to R58A, the abundance fitness amounted to 0.188 ± 0.088.

In the case of R58T, the abundance fitness is -0.108 ± 0.14.

With R58P, the abundance fitness is -0.018 ± 0.11.

In the case of R58L, the abundance fitness worked out at 0.212 ± 0.1.

Take R58Q: the abundance fitness came to 0.16 ± 0.12.

For the variant R58G, the abundance fitness came out at 0.093 ± 0.071.

For K47S, the abundance fitness is -0.46 ± 0.085.

On to K47N, for which the abundance fitness is -0.718 ± 0.24.

For the variant K47E, the abundance fitness was -0.477 ± 0.11.

On to K47Y, for which the abundance fitness was -0.567 ± 0.14.

With K47I, the abundance fitness was -0.972 ± 0.16.

Take K47D: the abundance fitness is -0.41 ± 0.11.

As to K47C, the abundance fitness was -0.606 ± 0.093.

For the variant K47A, the abundance fitness was -0.458 ± 0.079.

Consider K47Q, for which the abundance fitness is -0.236 ± 0.12.

In the case of K47H, the abundance fitness is -0.427 ± 0.16.

Take K47W: the abundance fitness is -0.765 ± 0.1.

K47M: the abundance fitness was -0.497 ± 0.11.

Turning to K47F, the abundance fitness was -0.304 ± 0.12.

Turning to K47V, the abundance fitness is -0.644 ± 0.07.

Turning to K47P, the abundance fitness is -0.365 ± 0.093.

K47L: the abundance fitness is -0.605 ± 0.075.

Consider K47T, for which the abundance fitness was -0.447 ± 0.11.

Consider K47R, for which the abundance fitness was -0.142 ± 0.062.

Consider A56I, for which the abundance fitness is -0.261 ± 0.12.

With A56M, the abundance fitness was -0.127 ± 0.097.

Consider A56W, for which the abundance fitness is -0.293 ± 0.079.

A56Y: the abundance fitness was -0.351 ± 0.13.

As to A56N, the abundance fitness is -0.18 ± 0.13.

Consider A56T, for which the abundance fitness is -0.122 ± 0.099.

Turning to A56P, the abundance fitness was -0.454 ± 0.1.

For A56K, the abundance fitness is -0.015 ± 0.086.

Consider A56G, for which the abundance fitness is -0.242 ± 0.053.

A56R: the abundance fitness is -0.116 ± 0.057.

For A56V, the abundance fitness is -0.076 ± 0.069.

As to A56S, the abundance fitness was -0.016 ± 0.069.

A56L: the abundance fitness was found to be 0.034 ± 0.074.

Turning to A56Q, the abundance fitness was found to be 0.027 ± 0.086.

For the variant A56C, the abundance fitness was -0.451 ± 0.12.

On to A56H, for which the abundance fitness was -0.102 ± 0.13.

For A56F, the abundance fitness is -0.526 ± 0.16.

Regarding K43I, the abundance fitness is -0.655 ± 0.2.

Turning to K43R, the abundance fitness was -0.064 ± 0.049.

Turning to K43E, the abundance fitness amounted to 0.035 ± 0.075.

For K43N, the abundance fitness was -0.105 ± 0.14.

As for K43D, the abundance fitness was found to be 0.11 ± 0.17.

Take K43H: the abundance fitness was -0.335 ± 0.15.

With K43Q, the abundance fitness was -0.091 ± 0.081.

In the case of K43V, the abundance fitness is -0.482 ± 0.063.

K43T: the abundance fitness came out at 0.206 ± 0.076.

K43C: the abundance fitness was 0.037 ± 0.12.

Turning to K43S, the abundance fitness came to 0.122 ± 0.076.

For the variant K43M, the abundance fitness was -0.115 ± 0.081.

In the case of K43W, the abundance fitness was -0.362 ± 0.068.

Consider K43F, for which the abundance fitness is -0.593 ± 0.17.

Take K43G: the abundance fitness turned out to be 0.001 ± 0.049.

For K43A, the abundance fitness is -0.014 ± 0.057.

Consider K43P, for which the abundance fitness was -0.359 ± 0.078.

Turning to K43Y, the abundance fitness is -0.691 ± 0.25.

Take K43L: the abundance fitness was -0.196 ± 0.067.

For the variant A53L, the abundance fitness was -0.314 ± 0.074.

In the case of A53G, the abundance fitness is -0.293 ± 0.052.

On to A53H, for which the abundance fitness was -0.476 ± 0.26.

For A53M, the abundance fitness is -0.394 ± 0.1.

With A53N, the abundance fitness was -0.079 ± 0.16.

For the variant A53E, the abundance fitness stood at 0.317 ± 0.08.

Consider A53F, for which the abundance fitness is -0.835 ± 0.18.

With A53Y, the abundance fitness was -0.524 ± 0.19.

Turning to A53D, the abundance fitness was determined as 0.042 ± 0.1.

Regarding A53I, the abundance fitness was -0.372 ± 0.15.

A53S: the abundance fitness was -0.089 ± 0.079.

A53P: the abundance fitness was -0.494 ± 0.11.

For the variant A53V, the abundance fitness was -0.274 ± 0.071.

As to A53R, the abundance fitness was -0.452 ± 0.065.

A53K: the abundance fitness is -0.174 ± 0.1.

A50R: the abundance fitness is -0.818 ± 0.072.

As to A50W, the abundance fitness is -0.627 ± 0.089.

Turning to A50F, the abundance fitness is -0.485 ± 0.19.

For the variant A50P, the abundance fitness was -0.351 ± 0.12.

Turning to A50I, the abundance fitness is -0.194 ± 0.15.

As for A50Y, the abundance fitness is -0.895 ± 0.23.

Consider A50D, for which the abundance fitness is -0.299 ± 0.13.

For the variant A50L, the abundance fitness is -0.084 ± 0.075.

Consider A50C, for which the abundance fitness is -0.008 ± 0.1.

As to A50E, the abundance fitness was -0.224 ± 0.14.

Take A50K: the abundance fitness is -0.765 ± 0.12.

Regarding A50M, the abundance fitness was -0.076 ± 0.097.

Turning to A50T, the abundance fitness was -0.43 ± 0.1.

Consider A50G, for which the abundance fitness was -0.462 ± 0.066.

Regarding A50Q, the abundance fitness is -0.212 ± 0.084.

As for A50N, the abundance fitness was -0.629 ± 0.13.

On to A50H, for which the abundance fitness is -0.606 ± 0.28.

On to A50S, for which the abundance fitness is -0.382 ± 0.074.

As for Q49C, the abundance fitness was -0.239 ± 0.16.

In the case of Q49L, the abundance fitness is -0.386 ± 0.086.

Q49P: the abundance fitness is -0.574 ± 0.11.

Q49E: the abundance fitness stood at 0.294 ± 0.1.

As for Q49F, the abundance fitness is -0.636 ± 0.16.

On to Q49W, for which the abundance fitness was -0.643 ± 0.1.

As to Q49K, the abundance fitness was -0.066 ± 0.2.

For the variant Q49A, the abundance fitness came out at 0.112 ± 0.11.

Q49H: the abundance fitness is -0.407 ± 0.2.

Q49G: the abundance fitness was -0.343 ± 0.072.

For the variant Q49I, the abundance fitness is -0.307 ± 0.18.

On to Q49R, for which the abundance fitness was -0.116 ± 0.074.

For Q49N, the abundance fitness was -0.481 ± 0.21.

Q49S: the abundance fitness was -0.162 ± 0.098.

Consider Q49T, for which the abundance fitness is -0.364 ± 0.15.

For the variant Q49Y, the abundance fitness is -0.544 ± 0.24.

Take Q49V: the abundance fitness was -0.205 ± 0.087.

For the variant Q49D, the abundance fitness is 0.021 ± 0.18.

As to E59G, the abundance fitness was -0.212 ± 0.074.

Turning to E59D, the abundance fitness was -0.203 ± 0.16.

Turning to E59T, the abundance fitness was -0.109 ± 0.13.

With E59C, the abundance fitness was -0.216 ± 0.29.

For the variant E59K, the abundance fitness was found to be 0.055 ± 0.25.

Consider E59F, for which the abundance fitness is -0.53 ± 0.23.

On to E59W, for which the abundance fitness is -0.54 ± 0.13.

Take E59H: the abundance fitness is -0.204 ± 0.22.

Regarding E59S, the abundance fitness was -0.397 ± 0.13.

As for E59Q, the abundance fitness is -0.033 ± 0.13.

With E59V, the abundance fitness is 0.042 ± 0.1.

For the variant E59R, the abundance fitness is -0.189 ± 0.074.

E59L: the abundance fitness is -0.424 ± 0.14.

Regarding E59A, the abundance fitness is 0.184 ± 0.14.

For E59M, the abundance fitness was 0.167 ± 0.41.

Variants of B2 are the subject of a further data set. The data set is described as above. The settings on record: Homo sapiens.
As to V54A, the abundance fitness is -0.151 ± 0.11.

With Q2I, the abundance fitness was found to be 0.186 ± 0.37.

Turning to E5D, the abundance fitness is 0.054 ± 0.19.

C27V: the abundance fitness is -0.752 ± 0.15.

F3K: the abundance fitness is 0.016 ± 0.14.

Regarding F3N, the abundance fitness amounted to 0.182 ± 0.17.

As for I43N, the abundance fitness was -0.222 ± 0.25.

As for L37P, the abundance fitness was -0.076 ± 0.16.

L37F: the abundance fitness is -0.193 ± 0.17.

Regarding H32P, the abundance fitness was -0.853 ± 0.23.

As for L23N, the abundance fitness came to 0.099 ± 0.11.

As to K45P, the abundance fitness was -0.032 ± 0.14.

Consider K45Q, for which the abundance fitness is -0.277 ± 0.16.

As to D29A, the abundance fitness was 0.06 ± 0.43.

As to C53L, the abundance fitness is -0.909 ± 0.2.

Regarding R10M, the abundance fitness was -0.036 ± 0.25.

Consider D25A, for which the abundance fitness was 0.158 ± 0.091.

In the case of D25G, the abundance fitness is -0.081 ± 0.12.

On to D25F, for which the abundance fitness was -0.394 ± 0.12.

For V47E, the abundance fitness is -0.142 ± 0.14.

On to Y31V, for which the abundance fitness was -0.113 ± 0.079.

On to D16A, for which the abundance fitness is -0.063 ± 0.12.

These data come from the Human Domainome abundance scans (Beltran et al. 2025).
